B1: Azoarcus group I ribozyme (parent)
chain: GUGCCUUGCGCCGGGAAACCACGCAAGGGAUGGUGUCAAAUUCGGCGAAACCUAAGCGCCCGCCCGGGCGUAUGGCAACGCCGAGCCAAGCUUCGGCGCCUGCGCCGAUGAAGGUGUAGAGACUAGACGGCACCCACCUAAGGCAAACGCUAUGGUGAAGGCAUAGUCCAGGGAGUGGCGAAAGUCACACAAACCGG

For 15 variants, reverse-splicing fitness results are on record in the RNAGym collection of RNA variant scans (doi:10.1093/molbev/msab373).

In this data set the parent is B1. The experiment in a line: reverse-splicing fitness (ratio to wild type); higher = more active; in vitro selection; Mg2+ level not given. The gist of the method: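 An in vitro group I ribozyme library with randomized positions was T7-transcribed and gel-purified. In triplicate, 10 pmol RNA in EPPS pH 7.5 was reacted with 50 pmoles of a 30-nt RNA substrate for 1 h at 37 °C across several added MgCl2 levels (1–48 mM), then stopped with EDTA. Products were reverse transcribed from a substrate-complementary primer, PCR-amplified and sequenced (HiSeq 4000). Fitness is a variant's read proportion after selection over that before, normalised to wild type.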
In the case of GUGCCUUGCGCCGGGAAACCACGCAAGGGAUGGUGUCAAAUUCGGCGAAACCUAAGCGCCCGCCCGGGCGUAUGGCAACGCGGAGCCAAGCUUCGGCGCCUGCGCCGAUGGAGGUGUAGAGACUAGACGGCACCCACCUAAGGCCAACGCUAUGGUGAAGGCAUAGUCCAGGGAGGGGCGAAAGUCACACAAACCGG [C82G A111G A145C U176G], the reverse-splicing fitness amounted to 0.116.

As for GUGCCUUGCGCCGGGAAACCACGCAAGGGAUGGUGUCAAAUUCGGCGAAACCUAAGCGCCCGCCCGGGCGUAUGGCAACGCGGAGCCAAGCUUCGGCGCCUGCGCCGAUGGAGGUGUAGAGACUAGACGGCACCCACCUAAGGCCAACGCUAUGGUGAAGGCAUAGUCCAGGGAGAGGCGAAAGUCACACAAACCGG [C82G A111G A145C U176A], the reverse-splicing fitness turned out to be 0.267. With GUGCCUUGCGCCGGGAAACCACGCAAGGGAUGGUGUCAAAUUCGGCGAAACCUAAGCGCCCGCCCGGGCGUAUGGCAACGCGGAGCCAAGCUUCGGCGCCUGCGCCGAUGGAGGUGUAGAGACUAGACGGCACCCACCUAAGGCCAACGCUAUGGUGAAGGCAUAGUCCAGGGAGCGGCGAAAGUCACACAAACCGG [C82G A111G A145C U176C], the reverse-splicing fitness is 0.258. Take GUGCCUUGCGCCGGGAAACCACGCAAGGGAUGGUGUCAAAUUCGGCGAAACCUAAGCGCCCGCCCGGGCGUAUGGCAACGCGGAGCCAAGCUUCGGCGCCUGCGCCGAUGGAGGUGUAGAGACUAGACGGCACCCACCUAAGGCCAACGCUAUGGUGAAGGCAUAGUCAAGGGAGGGGCGAAAGUCACACAAACCGG [C82G A111G A145C C169A U176G]: the reverse-splicing fitness came out at 0.00537.

With GUGCCUUGCGCCGGGAAACCACGCAAGGGAUGGUGUCAAAUUCGGCGAAACCUAAGCGCCCGCCCGGGCGUAUGGCAACGCGGAGCCAAGCUUCGGCGCCUGCGCCGAUGGAGGUGUAGAGACUAGACGGCACCCACCUAAGGCCAACGCUAUGGUGAAGGCAUAGUCAAGGGAGCGGCGAAAGUCACACAAACCGG [C82G A111G A145C C169A U176C], the reverse-splicing fitness was found to be 0.00787.

Take GUGCCUUGCGCCGGGAAACCACGCAAGGGAUGGUGUCAAAUUCGGCGAAACCUAAGCGCCCGCCCGGGCGUAUGGCAACGCGGAGCCAAGCUUCGGCGCCUGCGCCGAUGGAGGUGUAGAGACUAGACGGCACCCACCUAAGGCCAACGCUAUGGUGAAGGCAUAGUCAAGGGAGAGGCGAAAGUCACACAAACCGG [C82G A111G A145C C169A U176A]: the reverse-splicing fitness came to 0.0111.

GUGCCUUGCGCCGGGAAACCACGCAAGGGAUGGUGUCAAAUUCGGCGAAACCUAAGCGCCCGCCCGGGCGUAUGGCAACGCGGAGCCAAGCUUCGGCGCCUGCGCCGAUGGAGGUGUAGAGACUAGACGGCACCCACCUAAGGCCAACGUUAUGGUGAAGGCAUAGUCUAGGGAGCGGCGAAAGUCACACAAACCGG [C82G A111G A145C C150U C169U U176C]: the reverse-splicing fitness amounted to 0.0103. Consider GUGCCUUGCGCCGGGAAACCACGCAAGGGAUGGUGUCAAAUUCGGCGAAACCUAAGCGCCCGCCCGGGCGUAUGGCAACGCGGAGCCAAGCUUCGGCGCCUGCGCCGAUGGAGGUGUAGAGACUAGACGGCACCCACCUAAGGCCAACGUUAUGGUGAAGGCAUAGUCUAGGGAGGGGCGAAAGUCACACAAACCGG [C82G A111G A145C C150U C169U U176G], for which the reverse-splicing fitness was 0.0062. On to GUGCCUUGCGCCGGGAAACCACGCAAGGGAUGGUGUCAAAUUCGGCGAAACCUAAGCGCCCGCCCGGGCGUAUGGCAACGCGGAGCCAAGCUUCGGCGCCUGCGCCGAUGGAGGUGUAGAGACUAGACGGCACCCACCUAAGGCCAACGUUAUGGUGAAGGCAUAGUCUAGGGAGAGGCGAAAGUCACACAAACCGG [C82G A111G A145C C150U C169U U176A], for which the reverse-splicing fitness turned out to be 0.0142. As for GUGCCUUGCGCCGGGAAACCACGCAAGGGAUGGUGUCAAAUUCGGCGAAACCUAAGCGCCCGCCCGGGCGUAUGGCAACGCGGAGCCAAGCUUCGGCGCCUGCGCCGAUGGAGGUGUAGAGACUAGACGGCACCCACCUAAGGCGAACGCUAUGGUGAAGGCAUAGUCCAGGGAGUGGCGAAAGUCACACAAACCGG [C82G A111G A145G], the reverse-splicing fitness was determined as 0.431. Turning to GUGCCUUGCGCCGGGAAACCACGCAAGGGAUGGUGUCAAAUUCGGCGAAACCUAAGCGCCCGCCCGGGCGUAUGGCAACGCGGAGCCAAGCUUCGGCGCCUGCGCCGAUGGAGGUGUAGAGACUAGACGGCACCCACCUAAGGCCAACGCUAUGGUGAAGGCAUAGUCUAGGGAGCGGCGAAAGUCACACAAACCGG [C82G A111G A145C C169U U176C], the reverse-splicing fitness came out at 0.0106. As to GUGCCUUGCGCCGGGAAACCACGCAAGGGAUGGUGUCAAAUUCGGCGAAACCUAAGCGCCCGCCCGGGCGUAUGGCAACGCGGAGCCAAGCUUCGGCGCCUGCGCCGAUGGAGGUGUAGAGACUAGACGGCACCCACCUAAGGCCAACGCUAUGGUGAAGGCAUAGUCUAGGGAGAGGCGAAAGUCACACAAACCGG [C82G A111G A145C C169U U176A], the reverse-splicing fitness was found to be 0.0135.

Consider GUGCCUUGCGCCGGGAAACCACGCAAGGGAUGGUGUCAAAUUCGGCGAAACCUAAGCGCCCGCCCGGGCGUAUGGCAACGCGGAGCCAAGCUUCGGCGCCUGCGCCGAUGGAGGUGUAGAGACUAGACGGCACCCACCUAAGGCCAACGCUAUGGUGAAGGCAUAGUCUAGGGAGGGGCGAAAGUCACACAAACCGG [C82G A111G A145C C169U U176G], for which the reverse-splicing fitness was found to be 0.00545.

Take GUGCCUUGCGCCGGGAAACCACGCAAGGGAUGGUGUCAAAUUCGGCGAAACCUAAGCGCCCGCCCGGGCGUAUGGCAACGCGGAGCCAAGCUUCGGCGCCUGCGCCGAUGGAGGUGUAGAGACUAGACGGCACCCACCUAAGGCCAACGCUAUGGUGAAGGCAUAGUCGAGGGAGAGGCGAAAGUCACACAAACCGG [C82G A111G A145C C169G U176A]: the reverse-splicing fitness was found to be 0.022.

As for GUGCCUUGCGCCGGGAAACCACGCAAGGGAUGGUGUCAAAUUCGGCGAAACCUAAGCGCCCGCCCGGGCGUAUGGCAACGCGGAGCCAAGCUUCGGCGCCUGCGCCGAUGGAGGUGUAGAGACUAGACGGCACCCACCUAAGGCCAACGCUAUGGUGAAGGCAUAGUCGAGGGAGGGGCGAAAGUCACACAAACCGG [C82G A111G A145C C169G U176G], the reverse-splicing fitness worked out at 0.00501.
